Where two headings read alike, the source gives them in different places. Blank lines part the entries; values can stand above or below the binder they belong to.
Tests used:
[1] = target: T1, human LAG-3 overexpressed on cells (human, UniProt P18627 23-525); test: flow cytometry, HEK293E cells overexpressing LAG-3, antibody 2 µg/ml
T1 construct: whole, on cells; also called HEK293E-hLAG3; hLAG3 (Human)
T1 sequence (looked up): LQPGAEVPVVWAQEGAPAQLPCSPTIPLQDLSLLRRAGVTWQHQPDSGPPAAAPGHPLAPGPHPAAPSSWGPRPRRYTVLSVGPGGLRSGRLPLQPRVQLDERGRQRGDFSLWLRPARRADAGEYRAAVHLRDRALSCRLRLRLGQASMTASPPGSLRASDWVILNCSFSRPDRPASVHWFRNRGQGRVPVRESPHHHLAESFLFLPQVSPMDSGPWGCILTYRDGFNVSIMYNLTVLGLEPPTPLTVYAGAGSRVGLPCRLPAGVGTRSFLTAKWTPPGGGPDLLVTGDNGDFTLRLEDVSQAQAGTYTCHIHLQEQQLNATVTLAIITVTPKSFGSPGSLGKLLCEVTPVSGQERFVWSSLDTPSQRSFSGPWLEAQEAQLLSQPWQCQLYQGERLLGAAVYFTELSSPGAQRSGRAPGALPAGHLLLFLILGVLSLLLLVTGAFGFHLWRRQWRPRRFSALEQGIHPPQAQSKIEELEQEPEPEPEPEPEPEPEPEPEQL
Experimental: (§1) After that, the cells were washed three times with PBS containing 2% FBS and then subjected to the reaction for 30 minutes at 4° C. with anti-human IgG antibody (#FI-3000, Vectorlabs) linked with FITC fluorescent. The cells were washed by the same washing process as above followed by suspension in 0.2 ml PBS containing 2% FBS. The cells were then analyzed by FACSCanto II flow cytometer.

[2] = target: T2, mouse LAG-3 overexpressed on HEK293E cells (mouse, UniProt Q61790 24-521); test: flow cytometry, HEK293E cells overexpressing mouse LAG-3
T2 construct: whole, on cells; also called HEK293E-mLAG3; mLAG3 (Mouse)
T2 sequence (looked up): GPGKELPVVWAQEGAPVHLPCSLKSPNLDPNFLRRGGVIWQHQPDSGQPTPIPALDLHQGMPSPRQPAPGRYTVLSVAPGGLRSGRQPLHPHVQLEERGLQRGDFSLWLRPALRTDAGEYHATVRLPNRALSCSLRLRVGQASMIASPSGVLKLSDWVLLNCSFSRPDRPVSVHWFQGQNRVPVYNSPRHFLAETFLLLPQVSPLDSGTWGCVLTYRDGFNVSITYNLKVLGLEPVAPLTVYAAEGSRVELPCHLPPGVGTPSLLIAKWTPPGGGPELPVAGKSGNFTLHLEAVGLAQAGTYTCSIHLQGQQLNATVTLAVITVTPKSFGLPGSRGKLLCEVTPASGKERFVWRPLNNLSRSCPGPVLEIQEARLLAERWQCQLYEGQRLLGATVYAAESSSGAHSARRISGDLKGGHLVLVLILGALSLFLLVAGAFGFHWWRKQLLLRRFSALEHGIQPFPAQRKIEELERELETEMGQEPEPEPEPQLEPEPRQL
Experimental: as §1

[3] = target: T3, recombinant human LAG-3-his (#16498-H08H, Sino Biological Inc.) (human, UniProt P18627 23-450); test: scFv phage ELISA on coated antigen, A490
T3 construct: Bought; also called LAG-3-His (WT); not shown: His tag at the carboxy terminal
T3 sequence (looked up): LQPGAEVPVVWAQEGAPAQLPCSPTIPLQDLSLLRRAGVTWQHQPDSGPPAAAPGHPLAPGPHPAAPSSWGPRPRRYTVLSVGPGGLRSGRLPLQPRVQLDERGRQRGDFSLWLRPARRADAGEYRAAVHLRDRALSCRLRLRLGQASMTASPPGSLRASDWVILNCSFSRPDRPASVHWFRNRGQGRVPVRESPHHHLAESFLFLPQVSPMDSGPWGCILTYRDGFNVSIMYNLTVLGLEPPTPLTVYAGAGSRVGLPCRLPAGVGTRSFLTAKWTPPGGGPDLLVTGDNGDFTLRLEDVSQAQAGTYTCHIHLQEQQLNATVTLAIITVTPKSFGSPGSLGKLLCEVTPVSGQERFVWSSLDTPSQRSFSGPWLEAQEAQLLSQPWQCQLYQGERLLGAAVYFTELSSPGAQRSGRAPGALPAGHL

[4] = target: T2, mouse LAG-3 overexpressed on HEK293E …; test: flow cytometry, HEK293E cells overexpressing LAG-3, antibody 2 µg/ml
Experimental: as §1

[5] = target: T3, recombinant human LAG-3-his …; test: scFv phage ELISA on coated antigen, A490; remark: listed apart in the source
[6] = target: T4, recombinant monkey LAG-3 fused with mouse Fc (MrhLAG-3-mFc) (monkey); test: Octet biolayer interferometry, 1:1 global fit
T4 construct: also called monkey LAG-3 antigen
Experimental: (§2) After stabilization for 10 minutes in a buffer (#18-1042, Fortebio Inc.), immobilized antigen or antibody was washed out for 5 minutes with the buffer. The antibody or antigen desired for binding was prepared at different concentrations (0.94-60 nM) in a 96-well plate (#655209, Greiner Bio-One, USA) and subjected to the association reaction for 10 minutes followed by dissociation reaction for 10 minutes or 30 minutes.

[7] = target: T5, recombinant human LAG-3 extracellular domain fused with mouse Fc (hLAG-3-mFc) (human, UniProt P18627 29-450); test: Octet biolayer interferometry, 1:1 global fit
T5 construct: range 29-450; Made in HEK293F cells; also called human LAG-3 antigen; wild-type (WT) LAG-3; not shown: mouse Fc (mFc) at the carboxy terminal
T5 sequence (looked up): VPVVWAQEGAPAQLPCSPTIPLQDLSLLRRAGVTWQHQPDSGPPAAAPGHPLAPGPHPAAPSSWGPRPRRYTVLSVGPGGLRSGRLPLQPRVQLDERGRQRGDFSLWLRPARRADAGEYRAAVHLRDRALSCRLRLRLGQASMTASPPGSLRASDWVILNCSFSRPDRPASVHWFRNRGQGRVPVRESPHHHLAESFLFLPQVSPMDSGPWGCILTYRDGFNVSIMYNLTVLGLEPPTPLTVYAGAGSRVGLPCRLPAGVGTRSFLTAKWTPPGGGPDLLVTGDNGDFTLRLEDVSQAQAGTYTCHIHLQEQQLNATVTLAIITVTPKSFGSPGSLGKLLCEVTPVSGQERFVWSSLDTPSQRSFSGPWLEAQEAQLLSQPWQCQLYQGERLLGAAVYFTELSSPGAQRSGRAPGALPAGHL
Experimental: as §2

[8] = target: T4, recombinant monkey LAG-3 fused with …; test: BLI (Octet QKe), 1:1 global fit
Experimental: as §2

[9] = target: T5, recombinant human LAG-3 extracellular …; test: BLI (Octet QKe), 1:1 global fit
Experimental: as §2

[10] = target: T6, recombinant mouse LAG-3 fused with mouse Fc (mLAG-Fc) (mouse, UniProt Q61790 24-442, limits assumed); test: BLI (Octet QKe), 1:1 global fit
T6 construct: also called mouse LAG-3 antigen; not shown: mouse Fc (mFc) at the carboxy terminal
T6 sequence (looked up): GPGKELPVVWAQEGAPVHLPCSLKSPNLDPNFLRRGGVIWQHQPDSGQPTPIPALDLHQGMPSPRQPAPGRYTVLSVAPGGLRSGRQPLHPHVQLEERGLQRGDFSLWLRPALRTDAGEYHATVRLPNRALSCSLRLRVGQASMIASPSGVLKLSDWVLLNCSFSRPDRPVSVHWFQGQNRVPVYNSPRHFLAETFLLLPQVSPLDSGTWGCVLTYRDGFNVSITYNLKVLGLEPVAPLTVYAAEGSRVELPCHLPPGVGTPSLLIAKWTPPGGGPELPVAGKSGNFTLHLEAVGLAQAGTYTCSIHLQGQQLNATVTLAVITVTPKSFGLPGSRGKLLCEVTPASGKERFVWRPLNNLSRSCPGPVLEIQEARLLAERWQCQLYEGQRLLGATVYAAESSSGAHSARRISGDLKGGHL
Experimental: as §2

[11] = target: T1, human LAG-3 overexpressed on cells; test: cell-based or functional assay
[12] = target: T1, human LAG-3 overexpressed on cells; test: flow cytometry on HEK293E-hLAG3 cells, MFI, fitted curve
Experimental: as §1

[13] = target: T2, mouse LAG-3 overexpressed on HEK293E …; test: flow cytometry on HEK293E-mLAG3 cells, MFI, fitted curve
Experimental: as §1

[14] = target: T7, monkey (Rhesus monkey) LAG-3 overexpressed on HEK293E cells (Rhesus monkey, UniProt A0A5F8A874 23-533); test: flow cytometry on HEK293E-MrhLAG3 cells, MFI, fitted curve
T7 construct: whole, on cells; also called HEK293E-MrhLAG3; MrhLAG3 (Rhesus Monkey)
T7 sequence: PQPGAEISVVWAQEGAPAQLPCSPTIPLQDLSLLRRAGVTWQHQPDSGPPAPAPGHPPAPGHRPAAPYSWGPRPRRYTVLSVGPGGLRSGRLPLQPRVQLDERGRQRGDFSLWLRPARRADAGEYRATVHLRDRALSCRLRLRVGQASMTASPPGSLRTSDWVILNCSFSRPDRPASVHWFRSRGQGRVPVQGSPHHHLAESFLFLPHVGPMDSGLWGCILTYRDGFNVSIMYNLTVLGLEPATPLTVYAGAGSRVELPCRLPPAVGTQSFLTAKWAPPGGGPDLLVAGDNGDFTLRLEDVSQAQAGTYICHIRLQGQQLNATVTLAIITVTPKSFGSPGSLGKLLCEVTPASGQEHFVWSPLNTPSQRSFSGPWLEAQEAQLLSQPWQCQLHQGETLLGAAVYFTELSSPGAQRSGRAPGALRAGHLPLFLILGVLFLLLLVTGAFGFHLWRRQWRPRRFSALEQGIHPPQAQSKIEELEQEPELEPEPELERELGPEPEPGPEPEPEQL
Experimental: as §1

binding result [1]: binds
binding result [2]: no binding (tested: 2 µg/ml)
binding result [3]: binds
B1: LAG3-1E09_AM_2E04 (antibody, V domains shown)
VH: EVQLVESGGDLVKPGGSLRLSCAASGFSFNDHYMNWVRQAPGKGLEWVAYIDTSATYIYYADSVKGRFTISRDNAKNSLYLQMNSLRAEDTAVYYCARDNWGSLDYWGQGTLVTVSS
VL: DIQMTQSPSSLSASVGDRVTIICRASQSISNYLNWYQQEPGKAPKLLIYDASNLESGVPSRFSGSGSGTDFTLTISSLQPEDFATYYCQQSYSTPYTFGQGTKVEIK
notes: Tested as full IgG

binding result [1]: binds
binding result [2]: no binding (tested: 2 µg/ml)
B2: LAG3-1E09_AM_1E09 (antibody, V domains shown)
VH: EVQLVESGGDLVKPGGSLRLSCAASGFSFSDHYMNWIRQAPGKGLEWVAYIDTSATYIYYADSVKGRFTISRDNAKNSLYLQMNSLRAEDTAVYYCARDNWGSLDYWGQGTLVTVSS
VL: DIQMTQSPATLSVSPGERATLSCRASQSVMNNLAWYQQKPGQAPRLLIYDASNRATGIPARFSGSGSGTDFTLTISRLEPEDFAVYYCEQYVRSPYTFGQGTKLDIK
notes: Tested as full IgG

binding result [4]: binds
binding result [1]: binds
binding result [5]: binds
B3: LAG3-1E09_FR_1E10 (antibody, V domains shown)
VH: EVQLVESGGGLVKPGGSLRLSCAASGFSFSDHYMNWVRQAPGKGLEWVAYIDTSATYIYYADSVKGRFTISRDNAKNSLYLQMNSLRAEDTAVYYCARDNWGSLDYWGQGTLVTVSS
VL: DIQMTQSPSSLSASVGDRVIITCQASQDITNYLNWYQQKPGKAPKLLIYDASNLETGVPSRFTGSGSGTDFTFTISSLQPEDIATYHCQQSYSTPPYTFGQGTKLEIK
notes: Tested as full IgG

koff [6]: 3.23e-05 s⁻¹
kon [6]: 51400 M⁻¹ s⁻¹
koff [7]: 1.61e-05 s⁻¹
kon [7]: 119000 M⁻¹ s⁻¹
Kd [8]: 0.629 nM
Kd [9]: 0.136 nM
Kd [10]: 2.62 nM
EC50 (µg/ml), LAG3/MHC class II Blockade bioassay [11]: 0.0822 µg/mL
EC50 [12]: 0.0297 µg/mL
EC50 [13]: 1.74 µg/mL
EC50 [14]: 0.156 µg/mL
B4: LAG3-1E09_AM_2H01 (antibody, V domains shown)
VH: EVQLVESGGDLVQPGGSLRLSCAASGFTFSDHYMNWVRQAPGKGLEWVAYIDTSATYIYYADSVKGRFTISRDNAKNSLYLQMNSLRAEDTAVYYCARDNWGSLDYWGQGTLVTVSS
VL: DIQMTQSPSSLSASVGDRVTITCQASQDISNYLNWYQQKPGKAPNLLIYDASTLETGVPSRFSGSGYGTDFTLTISGLQPDDFALYYCQQSYSTPYSFGPGTKVEIK
notes: Tested as full IgG

binding result [1]: binds
binding result [5]: binds
binding result [2]: no binding (tested: 2 µg/ml)
B5: LAG3-1E09_FR_1E09 (antibody, V domains shown)
VH: EVQLVESGGGLVKPGGSLRLSCAASGFSFSDHYMNWIRQAPGKGLEWVAYIDTSATYIYYADSVKGRFTISRDNAKNSLYLQMNSLRAEDTAVYYCARDNWGSLDYWGQGTLVTVSS
VL: DIQMTQSPSSLSASVGDRVTITCQASQDISNYLNWYQQKPGKAPNLLIYDASNLETGVPSRFSGSGSGTDFALTISSLQPEDFATYYCQQSDSTPITFGQGTRLDIK
notes: Tested as full IgG
